Reference: paper PMC6720803, “Stability Evaluation and Stabilization of a Gastrin-Releasing Peptide Receptor (GRPR) Targeting Imaging Pharmaceutical” (Molecules, 2019)

Columns and labels:
[1] = assay type: physicochemical; conditions: pH 7.2
Description: A dose calibrator (Capintec, Florham Park, NJ, USA) and a Wizard 2480 gamma counter (Perkin Elmer, Waltham, MA, USA) were used for radioactivity measurements in the samples. A model 1100 Agilent HPLC system (Agilent, Wilmington, DE, USA) was used for the analysis of ^177Lu-labeled RM1 and AMBA and stability samples. The system consisted of a quaternary pump, degasser, column compartment capable of controlling the temperature at ambient or at 37 °C, auto-injector, a multiwavelength detector, and a Flow Ram radioisotope detector (Lab Logic, Sheffield, UK). The system was controlled by Laura software from Lab Logic. […] Zorbax Bonus RP C18 column (4.6 × 250 mm, 5 µm) was used for the analysis of ^177Lu-labeled AMBA and RM1 samples and for the separation of the ^177Lu-labeled AMBA and RM1 from their in vitro metabolic degradants in mouse, human, and canine sera stability samples.
(§1) All mass spectral analyses were performed at the Campus Chemical Instrument Center of the Ohio State University (Columbus, OH, USA) using a Bruker UltrafleXtreme MALDI-TOF MS system. […]

[2] = log D by shake-flask method; assay type: physicochemical
Description: The log D values were determined by a traditional shake-flask method. In a typical experiment, 10 μL sample of ^177Lu-labeled AMBA or RM1 with 0.037–0.052 GBq/mL radioconcentration and 814 GBq/mmol molar activity were added to a 4 mL mixture of 50:50 octanol:water. The mixture was shaken for one minute and mixed well. The sample was stored at room temperature for 5 min for separation of the two layers. Sample from each layer (25 μL) was added to a counting tube containing 250 μL water. The samples were mixed and counted. Triplicate measurements were made. The log D values were calculated using Equation (1): D = Counts in organic phase/Counts in the aqueous phase.(1)

[3] = assay type: in vitro ADME, mouse
Description: (§2) For mouse, canine, and human sera stability studies, 50 µL of ^177Lu-labeled RM1 or AMBA was mixed with 450 µL of mouse or canine or human serum. The mixtures were incubated at 37 °C for 24 h, samples were processed at each time point, and analyzed by an RP-HPLC method.
as §1
(§3) A literature procedure was followed for the serum stability studies of ^177Lu-labeled RM1 and AMBA [37, 43]. […] Several mixtures, containing 50 µL of ^177Lu-labeled RM1 or AMBA (usually 1.48 to 2.22 MBq radioactivity) and 450 µL of the mouse or human or canine serum, were prepared in HPLC vials and incubated at 37 °C in the block heater. […] The sample was then centrifuged at 6000 rpm for 15 min, and 200 µL of the supernatant solution was isolated and analyzed by an RP- HPLC method given above. A control experiment was conducted where samples of ^177Lu-labeled AMBA and RM1 were incubated in the water at 37 °C and analyzed by the RP-HPLC method.
(§4) Degradation of ^177Lu-labeled RM1 or AMBA was monitored by a reduction in percent HPLC peak area with time. […]

[4] = In vitro human serum stability; assay type: in vitro ADME; conditions: 50 µL labeled peptide + 450 µL human serum, 37 °C, RP-HPLC, read-out: degradation in human serum
Description: as §2, §1, §3, §4

[5] = Stability of high-radioconcentration samples in acetate buffer without and with stabilizers; assay type: physicochemical; conditions: 2–8 °C; for half-life of degradation (t1/2): 0.1 M acetate buffer pH 5, high radioconcentration (0.74 GBq/mL), RP-HPLC, first-order fit, average (SD) n = 3
Description: The ^177Lu-labeled RM1 samples in acetate buffer, with 0.74 GBq/mL radio concentration, 10,175–12,765 GBq/mmol molar activity, and >99% RCP, were prepared for high-radioconcentration sample stability studies. […] Degradation of the high-radioconcentration sample in acetate buffer was at least 20 times faster than the degradation of the low-radioconcentration samples of ^177Lu-labeled RM1.
All mass spectral analyses were performed at the Campus Chemical Instrument Center of the Ohio State University (Columbus, OH, USA) using a Bruker UltrafleXtreme MALDI-TOF MS system. An RP-HPLC method, involving a gradient mobile phase system of 50 mM Tris acetate, 10 mM EDTA at pH 7.2 (solvent A), and acetonitrile (solvent B) with 1 mL/min flow rate, was used to monitor the extent of the reaction of ^177Lu/Lu with AMBA and RM1; for the purity analysis of RM1, AMBA, Lu-RM1, Lu-AMBA, and of the final ^177Lu-labeled samples; and for monitoring the degradation of ^177Lu-labeled RM1 or AMBA samples in acetate buffer, mouse, canine, and human sera. The EDTA was incorporated to detect any unreacted ^177Lu/Lu in the samples. The gradient program used was 0% B at the beginning, raising the percentage of B to 50% in 15 min, holding B at 50% for 4 min, followed by decreasing the percentage of B to 0% in 5 min and continuing 0% for an additional 9 min. The total run time was […].
All samples of ^177Lu-labeled RM1 were prepared in 0.1 M acetate buffer, pH 5–5.5. The ^177Lu-labeled RM1 samples, with a low radioconcentration, were stored at room temperature and at 2–8 °C storage conditions for 6 d for stability studies. The samples with a high radioconcentration, without and with a stabilizer (gentisic acid or ascorbic acid), were stored 2–8 °C for 2 and 7 d, respectively. For the effect of stabilizer (ascorbic acid or gentisic acid) on the stability of the high-radioconcentration samples of ^177Lu-labeled RM1, the samples were mixed with 500 µg of ascorbic or gentisic acid post radiolabeling. The stability or degradation of the samples was monitored by a reduction in the percent HPLC peak area of ^177Lu-labeled RM1 with time.
Degradation of ^177Lu-labeled RM1 or AMBA was monitored by a reduction in percent HPLC peak area with time. Half-lives of in vitro acetate buffer and serum degradation for each imaging pharmaceutical were calculated by fitting the percent peak remaining versus time to a first-order kinetics model (Equations (2) and (3)) using Excel or Graph Pad Prism version 5.03 software (Graph Pad Software, Inc., La Jolla, CA, USA). Pt = P0 exp (−k × t);(2) t1/2 = 0.693/k;(3) where Pt is the percent peak area at time t, Po is the percent peak area initially, t is the time elapsed, k is the first-order rate constant, and t1/2 is the half-life of degradation reaction. All degradation kinetics experiments were conducted in triplicate, and average (n = 3) values (standard deviation given in the parenthesis) of half-life are reported.

[6] = Stability of low-radioconcentration samples in acetate buffer; assay type: physicochemical; conditions: pH 5
Description: The final pH of the ^177Lu-labeled RM1 and AMBA, post radiolabeling, was usually ~5 to 5.5, and the acetate buffer concentration was 0.1 M. Consequently, the degradation kinetics of ^177Lu-labeled RM1 and AMBA were evaluated in this environment after storage at room temperature (25 °C) and 2–8 °C for 5 d. Both samples were analyzed using an RP-HPLC method at various time points.
as §1
All samples of ^177Lu-labeled RM1 were prepared in 0.1 M acetate buffer, pH 5–5.5. […] The stability or degradation of the samples was monitored by a reduction in the percent HPLC peak area of ^177Lu-labeled RM1 with time.
Degradation of ^177Lu-labeled RM1 or AMBA was monitored by a reduction in percent HPLC peak area with time. Half-lives of in vitro acetate buffer and serum degradation for each imaging pharmaceutical were calculated by fitting the percent peak remaining versus time to a first-order kinetics model (Equations (2) and (3)) using Excel or Graph Pad Prism version 5.03 software (Graph Pad Software, Inc., La Jolla, CA, USA). […]

[7] = test system: gastrin-releasing peptide (GRP) receptors in a PC-3 cell line; parameters: method as in PMID 16818949, PMID 16909223; conditions: GRP receptors in PC-3 cell line; cited from earlier work
Description: The first proof-of-concept GRPR targeting study was conducted using a ^99mTc-labeled BBN (7–14) conjugate (RP527) for breast and prostate cancer imaging. […] Despite the general consensus rel ...

PC-3 tumor = conditions: mouse, in vivo; cited from earlier work
From the text: Several classes of BBN antagonists have been designed by modifying the C-terminal residues of naturally amidated BBN agonists. […] Additionally, ^68Ga-, ^111In-, and ^18F-AlF-labeled NOTA-PEG2-RM26 (where RM26 = D-Phe-Gln-Trp-Ala-Val-Gly-His-Sta-L ...

GRPR = test system: GRPR; parameters: method as in PMID 23763444, PMID 24312607; conditions: cell binding and internalization; cited from earlier work

CC(C)C[C@H](NC(=O)C[C@H](O)[C@H](CC(C)C)NC(=O)[C@H](Cc1c[nH]cn1)NC(=O)CNC(=O)[C@@H](NC(=O)[C@H](C)NC(=O)[C@H](Cc1c[nH]c2ccccc12)NC(=O)[C@H](CCC(N)=O)NC(=O)[C@@H](Cc1ccccc1)NC(=O)c1ccc(NC(=O)CNC(=O)CN2CCN(CC(=O)O)CCN(CC(=O)O)CCN(CC(=O)O)CC2)cc1)C(C)C)C(N)=O [Lu-RM1]
relative lipophilicity from retention times [1]: slightly more lipophilic than Lu-AMBA
log D [2]: −2.46 (0.07)

CC(C)C[C@H](NC(=O)C[C@H](O)[C@H](CC(C)C)NC(=O)[C@H](Cc1c[nH]cn1)NC(=O)CNC(=O)[C@@H](NC(=O)[C@H](C)NC(=O)[C@H](Cc1c[nH]c2ccccc12)NC(=O)[C@H](CCC(N)=O)NC(=O)[C@@H](Cc1ccccc1)NC(=O)c1ccc(NC(=O)CNC(=O)CN2CCN(CC(=O)O)CCN(CC(=O)O)CCN(CC(=O)O)CC2)cc1)C(C)C)C(N)=O [^177Lu-labeled RM1, metal not drawn]
degradation after 1440 min incubation [3]: complete degradation
metabolised at 24 h [4]: < 10%
half-life of degradation (t1/2) ([5]; 500 µg ascorbic acid): 39.2 (0.6) h
half-life of degradation (t1/2) ([5]; 500 µg gentisic acid): 142.5 (1.4) h
half-life of degradation (t1/2) ([5]; no stabilizer): 8.5 (0.2) h
degradation of high- versus low-radioconcentration samples, times faster ([5]; acetate buffer): at least 20 times
improvement of stability versus no stabilizer ([5]; high radioconcentration, 500 µg gentisic acid): ~17 fold
factor by which degradation is reduced versus control without stabilizer ([5]; high radioconcentration, ascorbic acid): ≥ 5
degraded in acetate buffer within the same time period as the mouse serum study [6]: 10-12%

DO3A-CH2CO-G-[4-aminobenzyl]- Gln-Trp-Ala-Val-Gly-His-Leu-Met-NH2 [AMBA, GRPR agonist, BBN-like peptide chelator conjugate, gift from Bracco Diagnostics]
IC50 [7]: 4.75 ± 0.25 nM

NOTA-PEG2-RM26 (where RM26 = D-Phe-Gln-Trp-Ala-Val-Gly-His-Sta-Leu-NH2) [^68Ga-labeled NOTA-PEG2-RM26, 68Ga-labeled NOTA-PEG2 conjugate of the GRPR antagonist peptide RM26]
specific tumor uptake (PC-3 tumor): 8.1 ± 0.4 %ID/g
IC50 (GRPR): 0.91 ± 0.19 nM

NOTA-PEG2-RM26 (where RM26 = D-Phe-Gln-Trp-Ala-Val-Gly-His-Sta-Leu-NH2) [^111In-labeled NOTA-PEG2-RM26, 111In-labeled NOTA-PEG2 conjugate of the GRPR antagonist peptide RM26]
specific tumor uptake (PC-3 tumor): 5.7 ± 0.3 %ID/g
IC50 (GRPR): 1.24 ± 0.29 nM
